Values joined by “and” are separate entries in the source; they are usually repeats but may differ in a detail not shown here. Identical values can stand only once.
Key:
[1] = substrate: Oc1ccc2ccccc2c1; experiment: not read
[2] = substrate: Oc1ccc2[nH]ccc2c1; experiment: (§1) Substrate activity at SULT1A1 (unknown origin) expressed in baculovirus infected Sf9 cells assessed as substrate Km incubated for 15 mins using [35S-]PAPS as sulfate donor by TLC analysis; parameters: species or system Homo sapiens
[3] = substrate: CN(C)c1ccc(-c2nc3cc(O)ccc3s2)cc1; experiment: as §1; parameters: species or system Homo sapiens
[4] = substrate: CNc1ccc(-c2nc3cc(O)ccc3s2)cc1; experiment: as §1; parameters: species or system Homo sapiens
[5] = substrate: Oc1ccc2sccc2c1; experiment: as §1; parameters: species or system Homo sapiens
[6] = substrate: Oc1ccc2ncsc2c1; experiment: as §1; parameters: species or system Homo sapiens
[7] = substrate: Oc1ccc2nc(-c3ccccc3)sc2c1; experiment: as §1; parameters: species or system Homo sapiens
[8] = substrate: Oc1ccc2ncoc2c1; experiment: as §1; parameters: species or system Homo sapiens
[9] = substrate: Oc1ccc2cc[nH]c2c1; experiment: as §1; parameters: species or system Homo sapiens
[10] = substrate: Oc1ccc2occc2c1; experiment: as §1; parameters: species or system Homo sapiens
[11] = substrate: Cc1nc2ccc(O)cc2s1; experiment: as §1; parameters: species or system Homo sapiens
[12] = substrate: Oc1ccc2ccsc2c1; experiment: as §1; parameters: species or system Homo sapiens
[13] = substrate: Oc1ccc2ccoc2c1; experiment: as §1; parameters: species or system Homo sapiens
[14] = substrate: Cc1nc2cc(O)ccc2s1; experiment: as §1; parameters: species or system Homo sapiens
[15] = substrate: Oc1ccc2[nH]cnc2c1; experiment: as §1; parameters: species or system Homo sapiens
[16] = substrate: Oc1ccc2[nH]ccc2c1; experiment: (§2) Substrate activity at SULT1A3 (unknown origin) expressed in baculovirus infected Sf9 cells assessed as substrate Km incubated for 15 mins using [35S-]PAPS as sulfate donor by TLC analysis; parameters: species or system Homo sapiens
[17] = substrate: Oc1ccc2sccc2c1; experiment: as §2; parameters: species or system Homo sapiens
[18] = substrate: Oc1ccc2ncsc2c1; experiment: as §2; parameters: species or system Homo sapiens
[19] = substrate: Oc1ccc2ncoc2c1; experiment: as §2; parameters: species or system Homo sapiens
[20] = substrate: Oc1ccc2cc[nH]c2c1; experiment: as §2; parameters: species or system Homo sapiens
[21] = substrate: Oc1ccc2occc2c1; experiment: as §2; parameters: species or system Homo sapiens
[22] = substrate: Oc1ccc2ccsc2c1; experiment: as §2; parameters: species or system Homo sapiens
[23] = substrate: Oc1ccc2ccoc2c1; experiment: as §2; parameters: species or system Homo sapiens
[24] = substrate: Cc1nc2cc(O)ccc2s1; experiment: as §2; parameters: species or system Homo sapiens
[25] = substrate: CN(C)c1ccc(-c2nc3cc(O)ccc3s2)cc1; experiment: (§3) Substrate activity at SULT1E1 (unknown origin) expressed in baculovirus infected Sf9 cells assessed as substrate Km incubated for 15 mins using [35S-]PAPS as sulfate donor by TLC analysis; parameters: species or system Homo sapiens
[26] = substrate: N#Cc1ccc(-c2nc3ccc(O)cc3s2)cc1; experiment: as §3; parameters: species or system Homo sapiens
[27] = substrate: CNc1ccc(-c2nc3cc(O)ccc3s2)cc1; experiment: as §3; parameters: species or system Homo sapiens
[28] = substrate: CC(=O)Nc1ccc(-c2nc3ccc(O)cc3s2)cc1; experiment: as §3; parameters: species or system Homo sapiens
[29] = substrate: Nc1ccc(-c2nc3ccc(O)cc3s2)cc1; experiment: as §3; parameters: species or system Homo sapiens
[30] = substrate: Oc1ccc2sccc2c1; experiment: as §3; parameters: species or system Homo sapiens
[31] = substrate: O=[N+]([O-])c1ccc(-c2nc3ccc(O)cc3s2)cc1; experiment: as §3; parameters: species or system Homo sapiens
[32] = substrate: Oc1ccc2ncsc2c1; experiment: as §3; parameters: species or system Homo sapiens
[33] = substrate: Oc1ccc2nc(-c3ccccc3)sc2c1; experiment: as §3; parameters: species or system Homo sapiens
[34] = substrate: Oc1ccc2nc(-c3ccc(I)cc3)sc2c1; experiment: as §3; parameters: species or system Homo sapiens
[35] = substrate: Oc1ccc2ncoc2c1; experiment: as §3; parameters: species or system Homo sapiens
[36] = substrate: Oc1ccc2occc2c1; experiment: as §3; parameters: species or system Homo sapiens
[37] = substrate: Oc1ccc2nc(-c3ccc(F)cc3)sc2c1; experiment: as §3; parameters: species or system Homo sapiens
[38] = substrate: Cc1nc2ccc(O)cc2s1; experiment: as §3; parameters: species or system Homo sapiens
[39] = substrate: Oc1ccc2ccsc2c1; experiment: as §3; parameters: species or system Homo sapiens
[40] = substrate: Oc1ccc2ccoc2c1; experiment: as §3; parameters: species or system Homo sapiens
[41] = substrate: Cc1nc2cc(O)ccc2s1; experiment: as §3; parameters: species or system Homo sapiens
[42] = substrate: CS(=O)(=O)c1ccc(-c2nc3ccc(O)cc3s2)cc1; experiment: as §3; parameters: species or system Homo sapiens
[43] = substrate: CN(C)c1ccc(-c2nc3ccc(O)cc3s2)cc1; experiment: as §3; parameters: species or system Homo sapiens
[44] = substrate: CNc1ccc(-c2nc3ccc(O)cc3s2)cc1; experiment: as §3; parameters: species or system Homo sapiens
[45] = substrate: COc1ccc(-c2nc3ccc(O)cc3s2)cc1; experiment: as §3; parameters: species or system Homo sapiens

B1: Sulfotransferase 2A1 (Homo sapiens) (protein)
chain: MSDDFLWFEGIAFPTMGFRSETLRKVRDEFVIRDEDVIILTYPKSGTNWLAEILCLMHSKGDAKWIQSVPIWERSPWVESEIGYTALSETESPRLFSSHLPIQLFPKSFFSSKAKVIYLMRNPRDVLVSGYFFWKNMKFIKKPKSWEEYFEWFCQGTVLYGSWFDHIHGWMPMREEKNFLLLSYEELKQDTGRTIEKICQFLGKTLEPEELNLILKNSSFQSMKENKMSNYSLLSVDYVVDKAQLLRKGVSGDWKNHFTVAQAEDFDKLFQEKMADLPRELFPWE
[1]
  Km: 254 µM
  Vmax: 0.00019 µmol/min/mg

B2: Sulfotransferase 1A1 (Homo sapiens) (protein)
chain: MELIQDTSRPPLEYVKGVPLIKYFAEALGPLQSFQARPDDLLISTYPKSGTTWVSQILDMIYQGGDLEKCHRAPIFMRVPFLEFKAPGIPSGMETLKDTPAPRLLKTHLPLALLPQTLLDQKVKVVYVARNAKDVAVSYYHFYHMAKVHPEPGTWDSFLEKFMVGEVSYGSWYQHVQEWWELSRTHPVLYLFYEDMKENPKREIQKILEFVGRSLPEETVDFVVQHTSFKEMKKNPMTNYTTVPQEFMDHSISPFMRKGMAGDWKTTFTVAQNERFDADYAEKMAGCSLSFRSEL
[2]
  Km: 6.62 µM
  Vmax: 0.0128 µmol/min/mg
[3]
  Km: 0.04 µM
  Vmax: 0.011 µmol/min/mg
[4]
  Km: 0.012 µM
  Vmax: 0.0039 µmol/min/mg
[5]
  Km: 0.14 µM
  Vmax: 0.0112 µmol/min/mg
[6]
  Km: 2.08 µM
  Vmax: 0.0103 µmol/min/mg
[7]
  Km: 0.045 µM
  Vmax: 0.00525 µmol/min/mg
[8]
  Km: 5.5 µM
  Vmax: 0.0132 µmol/min/mg
[9]
  Km: 0.23 µM
  Vmax: 0.0203 µmol/min/mg
[10]
  Km: 0.62 µM
  Vmax: 0.00987 µmol/min/mg
[11]
  Km: 6.2 µM
  Vmax: 0.0103 µmol/min/mg
[12]
  Km: 0.08 µM
  Vmax: 0.00978 µmol/min/mg
[13]
  Km: 0.18 µM
  Vmax: 0.0265 µmol/min/mg
[14]
  Km: 5.9 µM
  Vmax: 0.0193 µmol/min/mg
[15]
  Km: 19.3 µM
  Vmax: 0.0085 µmol/min/mg
[1]
  Km: 0.17 µM
  Vmax: 0.0146 µmol/min/mg

B3: Sulfotransferase 1E1 (Homo sapiens) (protein)
chain: MNSELDYYEKFEEVHGILMYKDFVKYWDNVEAFQARPDDLVIATYPKSGTTWVSEIVYMIYKEGDVEKCKEDVIFNRIPFLECRKENLMNGVKQLDEMNSPRIVKTHLPPELLPASFWEKDCKIIYLCRNAKDVAVSFYYFFLMVAGHPNPGSFPEFVEKFMQGQVPYGSWYKHVKSWWEKGKSPRVLFLFYEDLKEDIRKEVIKLIHFLERKPSEELVDRIIHHTSFQEMKNNPSTNYTTLPDEIMNQKLSPFMRKGITGDWKNHFTVALNEKFDKHYEQQMKESTLKFRTEI
[1]
  Vmax: 0.00339 µmol/min/mg and 0.00486 µmol/min/mg
[16]
  Km: 575 µM
  Vmax: 0.00366 µmol/min/mg
[17]
  Km: 251 µM
  Vmax: 0.00612 µmol/min/mg
[18]
  Km: 280 µM
  Vmax: 0.00809 µmol/min/mg
[19]
  Km: 1070 µM
  Vmax: 0.0115 µmol/min/mg
[20]
  Km: 2710 µM
  Vmax: 0.0195 µmol/min/mg
[21]
  Km: 385 µM
  Vmax: 0.00834 µmol/min/mg
[22]
  Km: 157 µM
  Vmax: 0.00982 µmol/min/mg
[23]
  Km: 377 µM
  Vmax: 0.00888 µmol/min/mg
[24]
  Km: 1040 µM
  Vmax: 0.0101 µmol/min/mg
[25]
  Km: 0.39 µM
  Vmax: 0.00098 µmol/min/mg
[26]
  Km: 0.25 µM
  Vmax: 0.00433 µmol/min/mg
[27]
  Km: 1.31 µM
  Vmax: 0.00182 µmol/min/mg
[28]
  Km: 2.36 µM
  Vmax: 0.00204 µmol/min/mg
[29]
  Km: 1.63 µM
  Vmax: 0.00278 µmol/min/mg
[30]
  Km: 38 µM
  Vmax: 0.00291 µmol/min/mg
[31]
  Km: 0.12 µM
  Vmax: 0.00343 µmol/min/mg
[32]
  Km: 61.3 µM
  Vmax: 0.0023 µmol/min/mg
[33]
  Km: 0.99 µM
  Vmax: 0.00318 µmol/min/mg
[34]
  Km: 0.52 µM
  Vmax: 0.00295 µmol/min/mg
[35]
  Km: 525 µM
  Vmax: 0.0033 µmol/min/mg
[36]
  Km: 177 µM
  Vmax: 0.00179 µmol/min/mg
[37]
  Km: 0.92 µM
  Vmax: 0.00416 µmol/min/mg
[38]
  Km: 6.96 µM
  Vmax: 0.00329 µmol/min/mg
[39]
  Km: 11.5 µM
  Vmax: 0.00287 µmol/min/mg
[40]
  Km: 90.9 µM
  Vmax: 0.00272 µmol/min/mg
[41]
  Km: 15.9 µM
  Vmax: 0.0047 µmol/min/mg
[42]
  Km: 1.32 µM
  Vmax: 0.00357 µmol/min/mg
[43]
  Km: 1.33 µM
  Vmax: 0.00149 µmol/min/mg
[44]
  Km: 1.6 µM
  Vmax: 0.0021 µmol/min/mg
[45]
  Km: 0.9 µM
  Vmax: 0.00197 µmol/min/mg

Source: ChEMBL document CHEMBL4482315, “In vivo imaging of sulfotransferases” (2013)
